Reference: article PMC9482650, “Quantitative fragmentomics allow affinity mapping of interactomes” (Nature Communications, 2022)

Assays:
Assay in all cases: holdup assay
Design in all cases: key: below the threshold = too weak to quantify, mostly under pKd 3.1 to 4
Details in all cases: plain residues with an end cap or a label only (N-terminal biotin on a linker: ahx)
RAPGEF6, Q8TEU7 = target: T1, RAPGEF6, Q8TEU7
T1 sequence (Q8TEU7 525-625, limits assumed, looked up): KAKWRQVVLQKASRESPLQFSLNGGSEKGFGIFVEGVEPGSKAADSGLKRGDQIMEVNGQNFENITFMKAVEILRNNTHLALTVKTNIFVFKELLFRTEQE

GRIP1_2, Q9Y3R0 = target: T2, GRIP1_2, Q9Y3R0
T2 sequence (Q9Y3R0 145-248, limits assumed, looked up): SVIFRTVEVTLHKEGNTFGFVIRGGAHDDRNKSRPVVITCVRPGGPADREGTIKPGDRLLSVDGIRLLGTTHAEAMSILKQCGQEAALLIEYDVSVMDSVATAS

SNTB1, Q13884 = target: T3, SNTB1, Q13884
T3 sequence (Q13884 107-205, limits assumed, looked up): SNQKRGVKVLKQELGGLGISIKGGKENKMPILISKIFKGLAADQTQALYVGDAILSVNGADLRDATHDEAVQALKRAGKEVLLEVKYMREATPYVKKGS

DVL3, Q92997 = target: T4, DVL3, Q92997
T4 sequence (Q92997 244-331, limits assumed, looked up): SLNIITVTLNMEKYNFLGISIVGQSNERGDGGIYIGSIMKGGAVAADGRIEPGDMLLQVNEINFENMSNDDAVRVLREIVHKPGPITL

HTRA4, P83105 = target: T5, HTRA4, P83105
T5 sequence (P83105 378-476, limits assumed, looked up): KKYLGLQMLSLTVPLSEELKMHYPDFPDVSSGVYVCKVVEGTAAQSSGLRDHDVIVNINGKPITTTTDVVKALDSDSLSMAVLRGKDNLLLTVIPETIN

IL16_1, Q14005 = target: IL16_1, Q14005
RHPN1, Q8TCX5 = target: T6, RHPN1, Q8TCX5
T6 sequence (Q8TCX5 508-602, limits assumed, looked up): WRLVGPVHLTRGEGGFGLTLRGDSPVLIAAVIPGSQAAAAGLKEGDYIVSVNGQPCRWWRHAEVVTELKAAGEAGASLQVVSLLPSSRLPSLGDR

MAGI2_5, Q86UL8 = target: MAGI2_5, Q86UL8
SNTG1, Q9NSN8 = target: T7, SNTG1, Q9NSN8
T7 sequence (Q9NSN8 52-150, limits assumed, looked up): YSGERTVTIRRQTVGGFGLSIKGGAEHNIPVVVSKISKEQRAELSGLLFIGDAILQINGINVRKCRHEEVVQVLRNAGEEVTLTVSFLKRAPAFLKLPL

NHERF4_1, Q86UT5-2 = target: NHERF4_1, Q86UT5-2
DLG2_3, Q15700 = target: DLG2_3, Q15700
TJP2_1, Q9UDY2 = target: TJP2_1, Q9UDY2
DLG5_1, Q8TDM6 = target: DLG5_1, Q8TDM6
GRIP2_3, Q9C0E4 = target: GRIP2_3, Q9C0E4
Inadl_10, Q8NI35 = target: Inadl_10, Q8NI35
MAST2, Q6P0Q8 = target: MAST2, Q6P0Q8
SNTA1, Q13424 = target: T8, SNTA1, Q13424
T8 sequence (Q13424 82-180, limits assumed, looked up): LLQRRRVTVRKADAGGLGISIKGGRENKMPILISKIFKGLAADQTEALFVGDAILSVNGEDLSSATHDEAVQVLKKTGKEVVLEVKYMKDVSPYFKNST

LIMK2, P53671 = target: LIMK2, P53671
NHERF4_4, Q86UT5 = target: NHERF4_4, Q86UT5
LIN7C, Q9NUP9 = target: T9, LIN7C, Q9NUP9
T9 sequence (Q9NUP9 88-185, limits assumed, looked up): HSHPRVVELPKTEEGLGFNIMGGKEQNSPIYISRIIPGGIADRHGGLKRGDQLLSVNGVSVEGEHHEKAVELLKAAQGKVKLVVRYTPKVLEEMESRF

MAGI2_2, Q86UL8 = target: MAGI2_2, Q86UL8
APBA1_1, Q02410 = target: T10, APBA1_1, Q02410
T10 sequence (Q02410 651-752, limits assumed, looked up): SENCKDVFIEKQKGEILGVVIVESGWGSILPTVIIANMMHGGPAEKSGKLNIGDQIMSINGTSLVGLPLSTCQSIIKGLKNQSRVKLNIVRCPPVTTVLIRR

ARHGEF12, Q9NZN5-2 = target: ARHGEF12, Q9NZN5-2
Inadl_8, Q8NI35 = target: Inadl_8, Q8NI35
DLG1_2, Q12959 = target: DLG1_2, Q12959
TX1BP3, O14907 = target: T11, TX1BP3, O14907
T11 sequence (O14907 10-122, limits assumed, looked up): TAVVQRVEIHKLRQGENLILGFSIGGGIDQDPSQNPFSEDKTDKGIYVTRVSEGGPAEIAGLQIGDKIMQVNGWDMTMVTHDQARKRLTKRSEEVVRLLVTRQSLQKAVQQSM

Sequence of GRIP2_3, Q9C0E4 (Q9C0E4 238-339): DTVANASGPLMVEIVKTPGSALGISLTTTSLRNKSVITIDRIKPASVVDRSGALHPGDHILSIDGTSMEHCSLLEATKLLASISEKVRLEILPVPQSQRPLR
Sequence of MAGI2_5, Q86UL8 (Q86UL8 915-1017): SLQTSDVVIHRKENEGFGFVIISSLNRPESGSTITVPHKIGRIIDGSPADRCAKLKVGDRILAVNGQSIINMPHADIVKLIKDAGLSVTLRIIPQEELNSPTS
Sequence of LIMK2, P53671 (P53671 143-248): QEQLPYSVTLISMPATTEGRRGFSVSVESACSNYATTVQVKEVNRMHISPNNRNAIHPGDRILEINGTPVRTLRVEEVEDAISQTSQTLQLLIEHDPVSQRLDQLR
Sequence of NHERF4_1, Q86UT5-2 (Q86UT5 other isoform, or with tags, fused parts or gaps): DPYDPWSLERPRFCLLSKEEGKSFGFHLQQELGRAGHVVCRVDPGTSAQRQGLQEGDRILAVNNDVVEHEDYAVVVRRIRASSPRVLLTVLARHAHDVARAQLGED
Sequence of NHERF4_4, Q86UT5 (Q86UT5 464-550): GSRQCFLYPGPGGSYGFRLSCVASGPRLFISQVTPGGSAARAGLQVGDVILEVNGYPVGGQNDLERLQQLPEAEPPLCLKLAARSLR
Sequence of MAST2, Q6P0Q8 (Q6P0Q8 1099-1202): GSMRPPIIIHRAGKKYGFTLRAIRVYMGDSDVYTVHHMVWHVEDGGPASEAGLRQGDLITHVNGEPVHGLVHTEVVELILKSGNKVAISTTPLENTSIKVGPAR
Sequence of IL16_1, Q14005 (Q14005 210-306): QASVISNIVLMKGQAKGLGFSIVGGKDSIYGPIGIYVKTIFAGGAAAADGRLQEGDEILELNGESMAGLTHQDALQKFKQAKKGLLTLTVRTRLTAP
Sequence of Inadl_8, Q8NI35 (Q8NI35 1425-1530): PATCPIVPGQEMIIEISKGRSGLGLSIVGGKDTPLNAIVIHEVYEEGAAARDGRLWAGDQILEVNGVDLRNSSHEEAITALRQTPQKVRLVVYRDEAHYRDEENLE
Sequence of MAGI2_2, Q86UL8 (Q86UL8 410-522): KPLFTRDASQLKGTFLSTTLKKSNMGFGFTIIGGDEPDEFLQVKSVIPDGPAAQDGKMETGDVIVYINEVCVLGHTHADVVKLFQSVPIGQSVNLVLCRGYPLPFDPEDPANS
Sequence of DLG5_1, Q8TDM6 (Q8TDM6 617-713): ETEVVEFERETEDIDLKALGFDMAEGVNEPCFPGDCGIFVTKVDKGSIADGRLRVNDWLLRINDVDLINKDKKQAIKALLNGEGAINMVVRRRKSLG
Sequence of ARHGEF12, Q9NZN5-2 (Q9NZN5 other isoform, or with tags, fused parts or gaps): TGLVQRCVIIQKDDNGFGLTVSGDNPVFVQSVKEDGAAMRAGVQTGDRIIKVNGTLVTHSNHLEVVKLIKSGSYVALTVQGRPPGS
Sequence of TJP2_1, Q9UDY2 (Q9UDY2 24-128): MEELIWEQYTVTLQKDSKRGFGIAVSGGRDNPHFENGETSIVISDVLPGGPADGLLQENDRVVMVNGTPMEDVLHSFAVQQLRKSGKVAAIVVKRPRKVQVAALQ
Sequence of Inadl_10, Q8NI35 (Q8NI35 1673-1763): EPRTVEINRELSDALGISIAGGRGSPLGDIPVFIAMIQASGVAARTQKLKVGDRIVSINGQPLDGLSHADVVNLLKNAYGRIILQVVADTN
Sequence of DLG1_2, Q12959 (Q12959 314-412): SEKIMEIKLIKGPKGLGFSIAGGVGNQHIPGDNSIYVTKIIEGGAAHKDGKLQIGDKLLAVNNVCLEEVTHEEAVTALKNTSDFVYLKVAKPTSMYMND

B1: NHERF2, Q15599 (peptide)
chain: NRKREIFSNF
pKd (RAPGEF6, Q8TEU7): below the threshold
pKd (GRIP1_2, Q9Y3R0): below the threshold
pKd (SNTB1, Q13884): below the threshold
pKd (DVL3, Q92997): below the threshold
pKd (HTRA4, P83105): below the threshold
pKd (IL16_1, Q14005): below the threshold
pKd (RHPN1, Q8TCX5): below the threshold
pKd (MAGI2_5, Q86UL8): below the threshold
pKd (SNTG1, Q9NSN8): below the threshold
pKd (NHERF4_1, Q86UT5-2): below the threshold
pKd (DLG2_3, Q15700): below the threshold
pKd (TJP2_1, Q9UDY2): below the threshold
pKd (DLG5_1, Q8TDM6): below the threshold
pKd (GRIP2_3, Q9C0E4): below the threshold
pKd (Inadl_10, Q8NI35): below the threshold
pKd (MAST2, Q6P0Q8): 3.89
pKd (SNTA1, Q13424): below the threshold
pKd (LIMK2, P53671): below the threshold
pKd (NHERF4_4, Q86UT5): below the threshold
pKd (LIN7C, Q9NUP9): below the threshold
pKd (MAGI2_2, Q86UL8): below the threshold
pKd (APBA1_1, Q02410): below the threshold
pKd (ARHGEF12, Q9NZN5-2): below the threshold
pKd (Inadl_8, Q8NI35): below the threshold
pKd (DLG1_2, Q12959): below the threshold
pKd (TX1BP3, O14907): below the threshold

B2: HPV49-L2, P36762 (peptide)
chain: RRRKRKRTYL
pKd (RAPGEF6, Q8TEU7): below the threshold
pKd (GRIP1_2, Q9Y3R0): below the threshold
pKd (SNTB1, Q13884): 3.58
pKd (DVL3, Q92997): 3.57
pKd (HTRA4, P83105): 3.66
pKd (IL16_1, Q14005): below the threshold
pKd (RHPN1, Q8TCX5): 3.51
pKd (MAGI2_5, Q86UL8): below the threshold
pKd (SNTG1, Q9NSN8): below the threshold
pKd (NHERF4_1, Q86UT5-2): 4.69
pKd (DLG2_3, Q15700): 3.54
pKd (TJP2_1, Q9UDY2): 5.68
pKd (DLG5_1, Q8TDM6): below the threshold
pKd (GRIP2_3, Q9C0E4): below the threshold
pKd (Inadl_10, Q8NI35): below the threshold
pKd (MAST2, Q6P0Q8): 4.22
pKd (SNTA1, Q13424): 3.69
pKd (LIMK2, P53671): below the threshold
pKd (NHERF4_4, Q86UT5): 3.53
pKd (LIN7C, Q9NUP9): below the threshold
pKd (MAGI2_2, Q86UL8): 5.33
pKd (APBA1_1, Q02410): 3.71
pKd (ARHGEF12, Q9NZN5-2): 4.68
pKd (Inadl_8, Q8NI35): 4.11
pKd (DLG1_2, Q12959): 3.82
pKd (TX1BP3, O14907): 3.48
